Data set [1] in a line: Whole cell naphthalene hydroxylation assay, P450cam in E. coli with added HRP, 96-well plate. Format: cell-based. Conditions: TB and 1.3 mM ALA, 100 μL volume.
Data set [2] can be described thus: Fluorescence image analysis of colonies on agar plates with naphthalene and hydrogen peroxide. Format: cell-based, E. coli BL21(DE3). The following applies: naphthalene as substrate.
Data set [3] can be described thus: 96-well plate whole cell assay of P450cam variants, generation of fluorescence per time, 3-phenylpropionate. Format: cell-based, E. coli. Conditions: for Relative rate towards 3-phenylpropionate (generation of fluorescence per time): whole cells, 96-well plate. How it is done: (§1) For the microtitre plate assay, the cells (grown in 4 ml TB/amp (100 ug/ml) media) were centrifuged for 10 min at 4° C. After the supernatant solution was removed, the harvested cells were carefully resuspended in 1 ml buffer solution (dibasic phosphate, 100 mM, pH 9.0). Then, 20 μl aliquots were placed into a Nunc fluorescence microplate. The total 180 μl reaction mixture was made up of 100 μl dibasic sodium phosphate buffer (100 mM, pH9.0), 20 μl ethanol, 10 μl substrate stock (4.5 mM coumarin in 10% ethanol, or 2 mM 3-phenylpropionate in 10% ethanol, 2 mM naphthalene in pure ethanol), and 10 μl hydrogen peroxide stock solution (50 mM H2O2 stock). The other reaction conditions are those described in EXAMPLE 2. The fluorescence was measured as a function of time, and the relative rates presented in Table 2 are the slopes of that measurement (RFU/min).

Data set [4] is classed as cell-based, E. coli. Conditions: for Relative rate towards naphthalene (generation of fluorescence per time): whole cells, 96-well plate.
Data set [5] in a line: 96-well plate whole cell assay of P450cam variants, generation of fluorescence per time, coumarin. Format: cell-based, E. coli. The following applies: whole cells. How it is done:
as §1

The conditions of data set [6]: ABTS assay; reported by Sigma; cited from earlier work.
The nature of data set [7]: Colorimetric coupling of naphthol by laccase or HRP in cell solutions. It is filed as biochemical. The following applies: 1-naphthol 100 uM. On the procedure: Laccase was purchased from Sigma Chemicals as a crude acetone powder from the […] Rhus vernificera. […] Type II HRP (RZ approximately 2.0) and all other chemicals were purchased from Sigma. Fluorescence readings were taken with a Perkin-Elmer HTS 7000 plate reading fluorimeter. Excitation and emission wavelengths were 360 nm and 465 nm, respectively.
Experiments were performed at 25° C. in the wells of opaque, white Nunc 96-well plates with a total liquid of 200 uL. Except where stated otherwise, each well contained 10% pure ethanol to improve the solubility of substrates and products. Where HRP was used for comparison, approximately 2.3 units of HRP and 5 mM H2O2 were in each well. […] Tris buffer was not used because it increases background fluorescence. Except where stated, results are given from conditions at pH 9.0, which were either the best results or barely distinguishable from the other conditions.
In order to evaluate laccase in a useful whole cell assay to identify the formation of hydroxylated aromatic compounds by oxidative enzymes (such as cytochrome P450cam and toluene dioxygenase), laccase was added to solutions containing cells, naphthalene, and naphthol. P450cam was expressed in E. coli strain BL21(DE3) using plasmid pCWori+. BL21(DE3) cells with and without the expressed protein were grown in Terrific Broth and after 8 hours were induced with 1 mM IPTG for 24 hours. […]

The nature of data set [8]: HRP peroxidase activity test with ABTS and H2O2, expression in E. coli. It is filed as cell-based, E. coli BL21(DE3). On the procedure:
The PCR products were ligated back into the pET-22b(+) vector which was transformed into the BL21(DE3) cells by electroporation. Cell growth and expression was carried out in either 96-well or 384-well microplates in LB medium at 30° C. Peroxidase activity tests were performed with H2O2 and ABTS (32).
IPTG was omitted in all HRP expression experiments, unless otherwise specified. Peroxidase activity tests for HRP were performed with a classical peroxidase assay, ABTS and hydrogen peroxide (26). Fifteen μl of cell suspension was mixed with 140 μl of ABTS/H2O2 (2.9 mM ABTS, 0.5 mM H2O2, pH 4.5) in microplates, and the activity was determined with a SpectraMax plate reader (Molecular Devices, Sunnyvale, Calif.) at 25° C. A unit of HRP is defined as the amount of enzyme that oxidizes 1 μmole of ABTS per min at the assay conditions.

Data set [9] can be described thus: Stability of mutant HRP at 4° C.

B1: WT: native cytochrome P450cam monooxygenase of P. putida, SEQ. ID. NO. 2 (protein)
chain: TTETIQSNANLAPLPPHVPEHLVFDFDMYNPSNLSAGVQEAWAVLQESNVPDLVWTRCNGGHWIATRGQLIREAYEDYRHFSSECPFIPREAGEAYDFIPTSMDPPEQRQFRALANQVVGMPVVDKLENRIQELACSLIESLRPQGQCNFTEDYAEPFPIRIFMLLAGLPEEDIPHLKYLTDQMTRPDGSMTFAEAKEALYDYLIPIIEQRRQKPGTDAISIVANGQVNGRPITSDEAKRMCGLLLVGGLDTVVNFLSFSMEFLAKSPEHRQELIERPERIPAACEELLRRFSLVADGRILTSDYEFHGVQLKKGDQILLPQMLSGLDERENACPMHVDFSRQKVSHTTFGHGSHLCLGQHLARREIIVTLKEWLTRIPDFSIAPGAQIQHKSGIVSGVQALPLVWDPATTKAV
modifications: P. Putida
Turning to B1, in data set [1], the “total activity (whole cell naphthalene hydroxylation)” value was 430 RFU/min. Moreover, the “colony fluorescence in digital scan” value in data set [2] is around 320 fluorescence units.

B2: M7-4H (protein)
chain: TTETIQSNANLAPLPPHVPEHLVFDFDMYNPSNLSAGVQEAWAVLQESNVPDLVWTRCNGGHWIATRGQLIREAYEDYRHFSSECPFIPREAGEAYDFIPTSMDPPEQRQFRALANQVVGMPVVDKLENRIQELACSLIESLRPQGQCNFTEDYAEPFPIRIFMLLAGLPEEDIPHLKYLTDQMTRPDGSMTFAEAKEALYDYLIPIIEQRRQKPGTDAISIVANGQVNGRPITSDEAKRMCGLLLVGGLDTVVNFLSFSMEFLAKSPEHRQELIERPERIPAACEELLRRFSLVADGRILTSDYEFHGVQLKKGDQILLPQMLSGLDERKNACPMHVDFSRQKVSHTTFGHGSHLCLGQHLARREIIVTLKEWLTRIPDFSIAPGAQIQHKSGIVSGVQALPLVWDPATTKAV
modifications: Mutant M7-4H
B2: the “Relative rate towards 3-phenylpropionate (generation of fluorescence per time)” value in data set [3] turned out to be 42.8 RFU/min. Besides, in data set [4], the “Relative rate towards naphthalene (generation of fluorescence per time)” value was 84.1 RFU/min. Moreover, the “Relative rate towards coumarin (generation of fluorescence per time)” value in data set [5] turned out to be 11.5 RFU/min.

B3: M7-8H (protein)
chain: TTETIQSNANLAPLPPHVPEHLVFDFDMYNPSNLSAGVQEAWAVLQESNVPDLVWTRCNGGHWIATRGQLIREAYEDYRHFSSECPFIPREAGEAYDFIPTSMDPPEQRQFRALANQVVGMPVVDKLENRIQELACSLIESLRPQGQCNFTEDYAEPFPIRIFMLLAGLPEEDIPHLKYLTDQMTRPDGSMTFAEAKEALYDYLIPIIEQRRQKPGTDAISIVANGQVNGRPITSDEAKRMFGLLLVGGLDTVVNFLSFSMEFLAKSPEHRQELIERPERIPAACEELLRRFSLVADGRILTSDYEFHGVQLKKGDQILLPQMLSGLDERKNACPMHVDFSRQKVSHTTFGHGSHLCLGQHLARREIIVTLKEWLTRIPDFSIAPGAQIQHKSGIVSGVQALPLVWDPATTKAV
modifications: Mutant M7-8H
Consider B3, for which the “Relative rate towards 3-phenylpropionate (generation of fluorescence per time)” value in data set [3] worked out at 35.4 RFU/min. Besides, the “Relative rate towards naphthalene (generation of fluorescence per time)” value in [4] came out at 53.1 RFU/min. Also, in data set [5], the “Relative rate towards coumarin (generation of fluorescence per time)” value worked out at 12.8 RFU/min.

B4: M7-6H (protein)
chain: TTETIQSNANLAPLPPHVPEHLVFDFDMYNPSNLSAGVQEAWAVLQESNVPDLVWTRCNGGHWIATRGQLIREAYEDYRHFSSECPFIPREAGEAYDFIPTSMDPPEQRQFRALANQVVGMPVVDKLENRIQELACSLIESLRPQGQCNFTEDYAEPFPIRIFMLLAGLPEEDIPHLKYLTDQMTRPDGSMTFAEAKEALYDYLIPIIEQRRQKPGTDAISIVANGQVNGRPITSDEAKRMCGLLLVGGLDTVVNFLSFSMEFLAKSPEHRQELIERPELIPAACEELLRRFSLVADGRILTSDYEFHGVQLKKGDQILLPQMLSGLDERKNACPMHVDFSRQKVSHTTFGHGSHLCLGQHLARREIIVTLKEWLTRIPDFSIAPGAQIQHKSGIVSGVQALPLVWDPATTKAV
modifications: Mutant M7-6H
As to B4, the “increase in activity on 3-phenylpropionate compared to wild-type” value in [3] (another series of experiments) is 3.2 fold. Moreover, the “Relative rate towards 3-phenylpropionate (generation of fluorescence per time)” value in [3] amounted to 43.6 RFU/min. In data set [4] (from Table 2 data), the “increased activity over the wild type, naphthalene hydroxylation” value amounted to 9.4 fold. The “Relative rate towards naphthalene (generation of fluorescence per time)” value in data set [4] is recorded as 86.7 RFU/min. For the same molecule, the “Relative rate towards coumarin (generation of fluorescence per time)” value in [5] was 14.1 RFU/min.

B5: HRP: horseradish peroxidase; purchased from Sigma (type II) or expressed from synthetic gene in pETpelBHRP (protein, listed as Escherichia coli)
chain: MQLTPTFYDNSCPNVSNIVRDTIVNELRSDPRIAASILRLHFHDCFVNGCDASILLDNTTSFRTEKDAFGNANSARGFPVIDRMKAAVESACPRTVSCADLLTIAAQQSVTLAGGPSWRVPLGRRDSLQAFLDLANANLPAPFFTLPQLKDSFRNVGLNRSSDLVALSGGHTFGKNQCRFIMDRLYNFSNTGLPDPTLNTTYLQTLRGLCPLNGNLSALVDFDLRTPTIFDNKYYVNLEEQKGLIQSDQELFSSPDATDTIPLVRSFANSTQTFFNAFVEAMDRMGNITPLTGTQGQIRLNCRVVNSNS
Consider B5, for which, in data set [6], the “total activity of 1 mg of highly purified HRP” value is reported as 1,000 units. Moreover, in data set [7], the “time for color change from light yellow to dark brown” value is reported as “approximately 1 minute”. The “peroxidase activity in cells induced with IPTG” value in data set [8] (1 mM IPTG) was “no peroxidase activity above background”. Further, the “activity against ABTS in cells not induced with IPTG” value in data set [8] (no IPTG) is “weak but measurable activity”.

B6: HRP1A6: horseradish peroxidase mutant, Asn255 changed to Asp, SEQ. ID. NO. 17 (protein, listed as Escherichia coli)
chain: MQLTPTFYDNSCPNVSNIVRDTIVNELRSDPRIAASILRLHFHDCFVNGCDASILLDNTTSFRTEKDAFGNANSARGFPVIDRMKAAVESACPRTVSCADLLTIAAQQSVTLAGGPSWRVPLGRRDSLQAFLDLANANLPAPFFTLPQLKDSFRNVGLNRSSDLVALSGGHTFGKNQCRFIMDRLYNFSNTGLPDPTLNTTYLQTLRGLCPLNGNLSALVDFDLRTPTIFDNKYYVNLEEQKGLIQSDQELFSSPDATDTIPLVRSFANSTQTFFNAFVEAMDRMGNITPLTGTQGQIRLNCRVVNSNS
B6: the total activity result in [8] (ABTS assay) is recorded as “greater than 100 units/L”. The “peroxidase activity on addition of IPTG” value in data set [8] (as little as 5 μM of IPTG added) was “markedly decreased activity”. In addition, in [8] (estimated from ABTS activity), the “concentration of active HRP” value is around 100 µg/L. Further, the “higher peroxidase activity than the parent clone” value in data set [8] (first generation, no IPTG added) was 10-14 fold. For the same molecule, the “share of HRP activity found in the LB culture medium” value in data set [8] (judged by the ABTS activity) is reported as “greater than 95%”. Besides, in data set [9], the stability result is recorded as “stable for up to a week”.

The values are drawn from US6902918B1, “Oxygenase enzymes and screening method” (California Institute of Technology, priority 1998, dated 2005).
